Source: US5985836A, “Alpha-1 proteinase inhibitor binding peptides” (Bayer Corporation, priority 1998, dated 1999)
Ends that are not written are not given here.

Target: T1, A1PI (Homo sapiens, UniProt P01009)
T1 construct: Human plasma is currently the only approved source of therapeutic AlPI
Assay: A1PI binding on peptide-resin column, injection of 1 mg A1PI in equilibration buffer
Settings: for Percent AlPI Eluted by Fraction, 1M NaCl / Percent AlPI Eluted by Fraction, 2% Acetic Acid / Percent AlPI Eluted by Fraction, Flowthrough: sequence order, 1 mg AlPI; for % of Total A1PI Eluted by Fraction (Based on Absorbance at 280 nm), 1M NaCl / % of Total A1PI Eluted by Fraction (Based on Absorbance at 280 nm), 2% Acetic Acid / % of Total A1PI Eluted by Fraction (Based on Absorbance at 280 nm), Flowthrough: 1 mg A1PI; for Percent A1PI Eluted by Fraction Based on Absorbance at 280 nm, 1M NaCl / Percent A1PI Eluted by Fraction Based on Absorbance at 280 nm, 2% Acetic Acid / Percent A1PI Eluted by Fraction Based on Absorbance at 280 nm, Flowthrough / Percent A1PI Eluted by Fraction, 1M NaCl / Percent A1PI Eluted by Fraction, 2% Acetic Acid / Percent A1PI Eluted by Fraction, Flowthrough: 1 mg A1PI in equilibration buffer
Experimental: Confirmatory binding assays were performed in a column chromatographic format on a microbore HPLC using individual peptide sequences synthesized directly onto the Toyopearl 650 M Chelate resin which had been modified with Totda followed by an alanine residue (A-Totda-Toyopearl), at a final substitution density of 0.1 mmole/g resin. The resin was packed into 0.4×5 cm columns (Thomson, Springfield, Va.) and tested on the Michrom HPLC system (Michrom BioResources, Auburn, Calif.). The elution program for all trials utilized the following method. The column was pre-equilibrated with equilibration buffer (as above). 1 ml of sample was injected and allowed sufficient time to flowthrough the column using equilibration buffer. The column was then washed with step elutions of 1M NaCl and 3M NaCl in equilibration buffer. The column was exposed to equilibration buffer with 0.1M NaCl. Any remaining protein was eluted with elution buffer (2% by volume glacial acetic acid in water).
A Gilson FC204 fraction collector at the HPLC outlet collected individual eluates for further analysis. Fractions collected from the 2% acetic acid eluates were neutralized with 2M Tris, pH 10.5 to bring the pH to neutrality. The protein samples were reconstituted in equilibration buffer unless otherwise stated. The samples were analyzed by the integration of the absorbance at 280 nm or by immunonephelometry. The specific method of determination is presented for each figure.
Tables 2 and 3 present the elution profiles for 19 sequences based on the injection of 1 mg AlPI in equilibration buffer at 4° C. and 20° C., respectively. The columns were run at a constant flow rate of865 μl/min (413 cm/hr) or 523 μl/min (250 cm/hr). No dependence of the elution profile with flow rate was found. The Percent AlPI Eluted by Fraction represents the amount eluted in the flowthrough, 1M NaCl wash, and 2% acetic acid fractions relative to the total AlPI eluted. The percentages are based on either the integration of the peak areas at […]

[1] = VIWLVR N-terminal point mutations, 4° C.

T1 sequence (P01009 25-418): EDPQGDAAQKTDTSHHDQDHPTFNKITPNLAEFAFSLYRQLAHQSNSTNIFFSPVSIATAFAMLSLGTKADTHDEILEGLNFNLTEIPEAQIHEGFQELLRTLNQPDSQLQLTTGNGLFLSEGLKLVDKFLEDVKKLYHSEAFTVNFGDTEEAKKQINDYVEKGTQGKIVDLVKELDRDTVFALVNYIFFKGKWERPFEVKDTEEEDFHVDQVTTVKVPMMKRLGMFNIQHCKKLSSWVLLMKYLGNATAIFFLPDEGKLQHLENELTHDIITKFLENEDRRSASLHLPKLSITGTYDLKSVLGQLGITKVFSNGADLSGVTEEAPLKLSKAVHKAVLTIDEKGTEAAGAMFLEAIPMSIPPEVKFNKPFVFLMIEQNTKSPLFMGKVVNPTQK

Substance: Ac-RVLFIV: N-terminal acetylated Ac-RVLFIV (listed under SEQ ID No:61)
- Percent AlPI Eluted by Fraction, 1M NaCl (4° C.): 11%
- Percent AlPI Eluted by Fraction, 2% Acetic Acid (4° C.): 13%
- Percent AlPI Eluted by Fraction, Flowthrough (4° C.): 76%
- Percent AlPI Eluted by Fraction, 1M NaCl (20° C.): 31%
- Percent AlPI Eluted by Fraction, 2% Acetic Acid (20° C.): 50%
- Percent AlPI Eluted by Fraction, Flowthrough (20° C.): 19%

Substance: Ac-V I F L V R: N-terminal acetylated sequence Ac-VIFLVR (listed under SEQ ID No:37) (not fully specified (C-terminus); printed as Ac-VIFLVR)
- % of Total A1PI Eluted by Fraction (Based on Absorbance at 280 nm), 1M NaCl (VIFLVR point mutations, 4° C.): 2%
- % of Total A1PI Eluted by Fraction (Based on Absorbance at 280 nm), 2% Acetic Acid (VIFLVR point mutations, 4° C.): 22%
- % of Total A1PI Eluted by Fraction (Based on Absorbance at 280 nm), Flowthrough (VIFLVR point mutations, 4° C.): 76%
- % of Total A1PI Eluted by Fraction (Based on Absorbance at 280 nm), 1M NaCl (VIFLVR point mutations, 20° C.): 0%
- % of Total A1PI Eluted by Fraction (Based on Absorbance at 280 nm), 2% Acetic Acid (VIFLVR point mutations, 20° C.): 0%
- % of Total A1PI Eluted by Fraction (Based on Absorbance at 280 nm), Flowthrough (VIFLVR point mutations, 20° C.): 100%

Substance: D I F L V R: point mutation of VIFLVR, position 1 (DIFLVR)
- % of Total A1PI Eluted by Fraction (Based on Absorbance at 280 nm), 1M NaCl (VIFLVR point mutations, 4° C.): 6%
- % of Total A1PI Eluted by Fraction (Based on Absorbance at 280 nm), 2% Acetic Acid (VIFLVR point mutations, 4° C.): 10%
- % of Total A1PI Eluted by Fraction (Based on Absorbance at 280 nm), Flowthrough (VIFLVR point mutations, 4° C.): 84%
- % of Total A1PI Eluted by Fraction (Based on Absorbance at 280 nm), 1M NaCl (VIFLVR point mutations, 20° C.): 9%
- % of Total A1PI Eluted by Fraction (Based on Absorbance at 280 nm), 2% Acetic Acid (VIFLVR point mutations, 20° C.): 21%
- % of Total A1PI Eluted by Fraction (Based on Absorbance at 280 nm), Flowthrough (VIFLVR point mutations, 20° C.): 70%

Substance: DDWLVR: point mutation of VIWLVR on Ala-Totda-Toyopearl (not fully specified (C-terminus))
- % of Total A1PI Eluted by Fraction (Based on Absorbance at 280 nm), 1M NaCl [1]: 0%
- % of Total A1PI Eluted by Fraction (Based on Absorbance at 280 nm), 2% Acetic Acid [1]: 1%
- % of Total A1PI Eluted by Fraction (Based on Absorbance at 280 nm), Flowthrough [1]: 99%

Substance: DHWLVR: point mutation of VIWLVR on Ala-Totda-Toyopearl (not fully specified (C-terminus))
- % of Total A1PI Eluted by Fraction (Based on Absorbance at 280 nm), 1M NaCl [1]: 37%
- % of Total A1PI Eluted by Fraction (Based on Absorbance at 280 nm), 2% Acetic Acid [1]: 10%
- % of Total A1PI Eluted by Fraction (Based on Absorbance at 280 nm), Flowthrough [1]: 53%

Substance: DNWLVR: point mutation of VIWLVR on Ala-Totda-Toyopearl (not fully specified (C-terminus))
- % of Total A1PI Eluted by Fraction (Based on Absorbance at 280 nm), 1M NaCl [1]: 9%
- % of Total A1PI Eluted by Fraction (Based on Absorbance at 280 nm), 2% Acetic Acid [1]: 1%
- % of Total A1PI Eluted by Fraction (Based on Absorbance at 280 nm), Flowthrough [1]: 90%

Substance: DSWLVR: point mutation of VIWLVR on Ala-Totda-Toyopearl (not fully specified (C-terminus))
- % of Total A1PI Eluted by Fraction (Based on Absorbance at 280 nm), 1M NaCl [1]: 10%
- % of Total A1PI Eluted by Fraction (Based on Absorbance at 280 nm), 2% Acetic Acid [1]: 0%
- % of Total A1PI Eluted by Fraction (Based on Absorbance at 280 nm), Flowthrough [1]: 90%

Substance: HDWLVR: point mutation of VIWLVR on Ala-Totda-Toyopearl (not fully specified (C-terminus))
- % of Total A1PI Eluted by Fraction (Based on Absorbance at 280 nm), 1M NaCl [1]: 30%
- % of Total A1PI Eluted by Fraction (Based on Absorbance at 280 nm), 2% Acetic Acid [1]: 0%
- % of Total A1PI Eluted by Fraction (Based on Absorbance at 280 nm), Flowthrough [1]: 70%

Substance: HHWLVR: point mutation of VIWLVR on Ala-Totda-Toyopearl (not fully specified (C-terminus))
- % of Total A1PI Eluted by Fraction (Based on Absorbance at 280 nm), 1M NaCl [1]: 86%
- % of Total A1PI Eluted by Fraction (Based on Absorbance at 280 nm), 2% Acetic Acid [1]: 14%
- % of Total A1PI Eluted by Fraction (Based on Absorbance at 280 nm), Flowthrough [1]: 0%

Substance: HNWLVR: point mutation of VIWLVR on Ala-Totda-Toyopearl (not fully specified (C-terminus))
- % of Total A1PI Eluted by Fraction (Based on Absorbance at 280 nm), 1M NaCl [1]: 92%
- % of Total A1PI Eluted by Fraction (Based on Absorbance at 280 nm), 2% Acetic Acid [1]: 8%
- % of Total A1PI Eluted by Fraction (Based on Absorbance at 280 nm), Flowthrough [1]: 0%

Substance: HSWLVR: point mutation of VIWLVR on Ala-Totda-Toyopearl (not fully specified (C-terminus))
- % of Total A1PI Eluted by Fraction (Based on Absorbance at 280 nm), 1M NaCl [1]: 89%
- % of Total A1PI Eluted by Fraction (Based on Absorbance at 280 nm), 2% Acetic Acid [1]: 11%
- % of Total A1PI Eluted by Fraction (Based on Absorbance at 280 nm), Flowthrough [1]: 0%

Substance: IIe Lys Arg Tyr Tyr Leu (IKRYYL)
- Percent A1PI Eluted by Fraction Based on Absorbance at 280 nm, 1M NaCl (4° C.): 97%
- Percent A1PI Eluted by Fraction Based on Absorbance at 280 nm, 2% Acetic Acid (4° C.): 3%
- Percent A1PI Eluted by Fraction Based on Absorbance at 280 nm, Flowthrough (4° C.): 0%
- Percent A1PI Eluted by Fraction, 1M NaCl (20° C.): 92%
- Percent A1PI Eluted by Fraction, 2% Acetic Acid (20° C.): 8%
- Percent A1PI Eluted by Fraction, Flowthrough (20° C.): 0%

Substance: IKRYYN
- Percent A1PI Eluted by Fraction Based on Absorbance at 280 nm, 1M NaCl (4° C.): 100%
- Percent A1PI Eluted by Fraction Based on Absorbance at 280 nm, 2% Acetic Acid (4° C.): 0%
- Percent A1PI Eluted by Fraction Based on Absorbance at 280 nm, Flowthrough (4° C.): 0%
- Percent A1PI Eluted by Fraction, 1M NaCl (20° C.): 95%
- Percent A1PI Eluted by Fraction, 2% Acetic Acid (20° C.): 5%
- Percent A1PI Eluted by Fraction, Flowthrough (20° C.): 0%

Substance: N I F L V R: point mutation of VIFLVR, position 1 (NIFLVR)
- % of Total A1PI Eluted by Fraction (Based on Absorbance at 280 nm), 1M NaCl (VIFLVR point mutations, 4° C.): 25%
- % of Total A1PI Eluted by Fraction (Based on Absorbance at 280 nm), 2% Acetic Acid (VIFLVR point mutations, 4° C.): 75%
- % of Total A1PI Eluted by Fraction (Based on Absorbance at 280 nm), Flowthrough (VIFLVR point mutations, 4° C.): 0%

Substance: NDWLVR: point mutation of VIWLVR on Ala-Totda-Toyopearl (not fully specified (C-terminus))
- % of Total A1PI Eluted by Fraction (Based on Absorbance at 280 nm), 1M NaCl [1]: 0%
- % of Total A1PI Eluted by Fraction (Based on Absorbance at 280 nm), 2% Acetic Acid [1]: 0%
- % of Total A1PI Eluted by Fraction (Based on Absorbance at 280 nm), Flowthrough [1]: 100%

Substance: NHWLVR: point mutation of VIWLVR on Ala-Totda-Toyopearl (not fully specified (C-terminus))
- % of Total A1PI Eluted by Fraction (Based on Absorbance at 280 nm), 1M NaCl [1]: 83%
- % of Total A1PI Eluted by Fraction (Based on Absorbance at 280 nm), 2% Acetic Acid [1]: 17%
- % of Total A1PI Eluted by Fraction (Based on Absorbance at 280 nm), Flowthrough [1]: 0%

Substance: NNWLVR: point mutation of VIWLVR on Ala-Totda-Toyopearl (not fully specified (C-terminus))
- % of Total A1PI Eluted by Fraction (Based on Absorbance at 280 nm), 1M NaCl [1]: 13%
- % of Total A1PI Eluted by Fraction (Based on Absorbance at 280 nm), 2% Acetic Acid [1]: 4%
- % of Total A1PI Eluted by Fraction (Based on Absorbance at 280 nm), Flowthrough [1]: 83%

Substance: NSWLVR: point mutation of VIWLVR on Ala-Totda-Toyopearl (not fully specified (C-terminus))
- % of Total A1PI Eluted by Fraction (Based on Absorbance at 280 nm), 1M NaCl [1]: 43%
- % of Total A1PI Eluted by Fraction (Based on Absorbance at 280 nm), 2% Acetic Acid [1]: 5%
- % of Total A1PI Eluted by Fraction (Based on Absorbance at 280 nm), Flowthrough [1]: 52%

Substance: NWKRVR
- Percent A1PI Eluted by Fraction Based on Absorbance at 280 nm, 1M NaCl (4° C.): 95%
- Percent A1PI Eluted by Fraction Based on Absorbance at 280 nm, 2% Acetic Acid (4° C.): 5%
- Percent A1PI Eluted by Fraction Based on Absorbance at 280 nm, Flowthrough (4° C.): 0%
- Percent A1PI Eluted by Fraction, 1M NaCl (20° C.): 93%
- Percent A1PI Eluted by Fraction, 2% Acetic Acid (20° C.): 7%
- Percent A1PI Eluted by Fraction, Flowthrough (20° C.): 0%
